Series [1] deals with T1, PTBP1 (C250S/C251S) (Homo sapiens, UniProt P26599-1 1-531, C250S;C251S). Briefly: UV cross-linking MS (LLPS-CLIR-MS); dispersed and condensed phases; RRM cross-links (H411, H457); Assay buffers largely not in the material; N protein in 20 mM sodium phosphate pH 6.0, 50 mM NaCl (fig. S7 dispersed mimic 300 mM NaCl); UV 254 nm; turbidity of N at room temperature; NMR 303 or 310 K. To be noted: protein: recombinant; label: 13C/15N-labeled and unlabeled 1:1; single strand.

In the next series the target is FUS (UniProt P35637 1-526). Briefly: UV cross-linking MS (LLPS-CLIR-MS); 0.075 and 0.1 eq RNA, 20 uM FUS; RRM (M321, Y325) and region C-terminal to ZnF; Assay buffers largely not in the material; N protein in 20 mM sodium phosphate pH 6.0, 50 mM NaCl (fig. S7 dispersed mimic 300 mM NaCl); UV 254 nm; turbidity of N at room temperature; NMR 303 or 310 K. To be noted: protein: recombinant; tags: GB1-His6 removed by TEV; label: isotope-labeled; two hairpins.

The target of series [2] is T1, PTBP1 (C250S/C251S). Briefly: UV cross-linking MS (LLPS-CLIR-MS); dispersed and condensed phases; Assay buffers largely not in the material; N protein in 20 mM sodium phosphate pH 6.0, 50 mM NaCl (fig. S7 dispersed mimic 300 mM NaCl); UV 254 nm; turbidity of N at room temperature; NMR 303 or 310 K. Particulars: protein: recombinant; label: isotope-labeled; hairpin.
Series [3] deals with SARS-CoV-2 nucleocapsid (N) (SARS-CoV-2, UniProt P0DTC9 1-419). Briefly: UV cross-linking MS (LLPS-CLIR-MS); Assay buffers largely not in the material; N protein in 20 mM sodium phosphate pH 6.0, 50 mM NaCl (fig. S7 dispersed mimic 300 mM NaCl); UV 254 nm; turbidity of N at room temperature; NMR 303 or 310 K. To be noted: protein: recombinant; tags: N-terminal His6 removed by TEV; chain copies: 2; label: 18O4-ATP post-digestion labeling; hairpin with internal loops.

B1: 3xUCUCU (ssRNA)
RNA: GGGAGAUCUCUAAAAAUCUCUAAAAAUCUCUAAAAA
In the case of B1, in the series with PTBP1 (C250S/C251S) [1], the binding result is recorded as “binds”.

B2: U1-SL34 (structured_RNA)
RNA: GGGAUCCGAUUUCCCCAAAUGUGGGAAACUCGACUGCAUAAUUUGUGGUAGUGGGGGACUGCGUUCGCGCUUUCCCCUG
On to B2, for which the binding result with FUS is recorded as “binds”.

B3: U1-SL4 (structured_RNA)
RNA: GGGGGACUGCGUUCGCGCUUUCCC
Regarding B3, in the series with PTBP1 (C250S/C251S) [2], the binding result is recorded as “binds”.

B4: s2m (structured_RNA)
RNA: GGUUCACCGAGGCCACGCGGAGUACGAUCGAGUGUACAGUGAACC
B4: the binding result in series [3] was “binds”.

These data come from publication PMC10917357, “Specific protein-RNA interactions are mostly preserved in biomolecular condensates”.
